Values belong to the molecule of their own block, whether it stands above or below them.
Key:
[1] = tested on: fibronectin-dependent cell adhesion; conditions: cited from earlier work
[2] = tested on: VLA-4 and VLA-5 adhesion to fibronectin; conditions: cited from earlier work
P-STAT3 = assay: Western blot of coculture-induced survival signaling; type: cell-based; conditions: cells cocultured with BMSCs, 30 minutes (HL60) or 4 hr (U266)
Protocol: FIG. 7 is a panel of Western blots assaying for P-STAT3, STAT3, P-JNK, JNK, P-MAPK, and MAPK levels in HL60, KG1 or U266 cells grown in suspension or cocultured with BMSCs and natalizumab, as indicated, for 30 minutes (HL60) or 4 hours (U266).
HL60, KG1 or U266 cells were grown in suspension or coculture with BMSCs and natalizumab, as indicated, for 30 minutes (HL60) or 4 hr (U266), and then the cells were separated from BMSCs, and processed for Western blot analysis to determine levels of P-STAT3, STAT3, P-JNK, JNK, P-MAPK, and MAPK (FIG. 7).

AML cell line HL60 = assay: Adhesion mediated drug resistance, HL60 cocultured with BMSC, ara-C, apoptosis; type: cell-based; conditions: natalizumab combined with ara-C 10 μM, 24 hours
Protocol: (§1) FIGS. 6A-6D are graphs showing the results of natalizumab on cell adhesion mediated drug resistance. FIG. 6A depicts the percentage of viable HL60 cells remaining after the cells were cocultured for 24 hours with (▪) or without (□) BMSC, then exposed to the chemotherapy drug AraC (cytarabine) for 24 hours. FIG. 6B depicts the percentage of apoptotic cells (Annexin V+, 7AAD) after cocultured HL60 cells were incubated with natalizumab or isotype control antibody for 4 hr., and then exposed to an effective AraC dose as determined from FIG. 6A for 24 hours. FIGS. 6C and 6D show the results of similar experiments conducted with U266 cells exposed to melphalan.
Culturing the AML cell line HL60 in the presence of BMSC conferred a protective advantage to the cells when treated with the chemotherapeutic agent ara-C, as shown in FIG. 6A. Cells were cultured for 24 hours with (▴) or without (□) BMSC, then exposed to the chemotherapy drug AraC (cytarabine) for 24 hours (FIG. 6A). Cell viability was enhanced by the presence of BMSC.

[3] = tested on: tumor cell binding to VLA-4 ligands; assay: Maximally attainable inhibition of tumor cell binding to VLA-4 ligands at saturating antibody; type: cell-based; conditions: saturating levels of natalizumab (20 μg/mL) vs isotype control
Protocol: FIGS. 3A and 3B are graphs showing the effect of natalizumab on HL60 and KG1 AML tumor cell adhesion to VLA-4 ligands fibronectin (• FN), vascular adhesion molecule-1-Ig fusion protein (▪ VCAM-Ig), or bone marrow stromal cells (▴ BMSC), in the presence of natalizumab or an isotype control antibody in serial dilutions starting at 20 μg/ml. FIGS. 3C and 3D show inhibition of binding of HL60 and KG1 AML cells to VLA-4 ligands in the presence saturating levels of natalizumab (20 μg/mL) (solid bars) or isotype control (clear bars).
(§2) FIGS. 4A and 4B are graphs showing the effect of natalizumab on H929 and U266 mM tumor cell adhesion to VLA-4 ligands fibronectin (• FN), vascular adhesion molecule-1-Ig fusion protein (▪ VCAM-Ig), or bone marrow stromal cells (▴ BMSC). Adhesion was assayed in the presence of natalizumab or an isotype control antibody in serial dilutions starting at 20 μg/ml.
as §2, with “5A” for “4A”, “5B” for “4B”, “Mec1” for “H929”, “JM1 CLL” for “U266 mM”
Experiments were conducted to test whether a VLA-4 antagonist can inhibit binding of tumor cells to a VLA-4 ligand. […]

[4] = molecular target: T1, VLA-4 on tumor cell lines (Homo sapiens, UniProt P13612); assay: Binding of natalizumab to AML, CLL and MM tumor cell lines by flow cytometry (all lines)
T1 construct: VLA-4 expression was observed on all cell lines tested; endogenous in cells; host or cells: HL60, KG1 (AML); U266, H929 (MM); Mec1, JM1 (CLL)
Protocol: FIG. 2 is a graph depicting binding of natalizumab to VLA-4 on tumor cell lines as measured by flow cytometry.
(§3) Flow cytometry experiments were performed to assess the level of VLA-4 expression on tumor cell lines, and VLA-4 expression was observed on all cell lines tested (FIG. 1).).

MM cell line U226 = assay: Adhesion mediated drug resistance, MM cells, melphalan; type: cell-based
Protocol: as §1

[5] = molecular target: T2, VLA-4 (alpha4beta1 integrin) on hematologic tumor cell lines (UniProt P13612 34-1032; P05556 21-798); assay: inhibition of JM1 cell adhesion to wells coated with VCAM-Ig
T2 construct: whole, on cells; also called a4β1 integrin
Protocol: as §2, with “5A” for “4A”, “5B” for “4B”, “Mec1” for “H929”, “JM1 CLL” for “U266 mM”
(§4) Experiments were conducted to test whether a VLA-4 antagonist can inhibit binding of tumor cells to a VLA-4 ligand. Cell lines were allowed to adhere to wells coated with fibronectin (• FN), vascular adhesion molecule-1-Ig fusion protein (▪ VCAM-Ig), or bone marrow stromal cells (▴ BMSC), in the presence of increasing concentrations of natalizumab or isotype control antibody.

[6] = molecular target: T2, VLA-4 (alpha4beta1 integrin) on …; assay: inhibition of H929 cell adhesion to wells coated with VCAM-Ig
Protocol: as §2, §4

[7] = molecular target: T2, VLA-4 (alpha4beta1 integrin) on …; assay: inhibition of U266 cell adhesion to wells coated with VCAM-Ig
Protocol: as §2, §4

[8] = molecular target: T2, VLA-4 (alpha4beta1 integrin) on …; assay: inhibition of H929 cell adhesion to wells coated with fibronectin (FN)
Protocol: as §2, §4

[9] = molecular target: T2, VLA-4 (alpha4beta1 integrin) on …; assay: inhibition of Mec1 cell adhesion to wells coated with VCAM-Ig
Protocol: as §2, with “5A” for “4A”, “5B” for “4B”, “Mec1” for “H929”, “JM1 CLL” for “U266 mM”
as §4

[10] = molecular target: T2, VLA-4 (alpha4beta1 integrin) on …; assay: inhibition of U266 cell adhesion to wells coated with fibronectin (FN)
Protocol: as §2, §4

[11] = molecular target: T2, VLA-4 (alpha4beta1 integrin) on …; assay: flow cytometry, binding to HL60 (AML) cells
Protocol: as §3

[12] = molecular target: T2, VLA-4 (alpha4beta1 integrin) on …; assay: inhibition of KG1 cell adhesion to wells coated with VCAM-Ig
Protocol: as §4

[13] = molecular target: T2, VLA-4 (alpha4beta1 integrin) on …; assay: inhibition of JM1 cell adhesion to wells coated with fibronectin (FN)
Protocol: as §2, with “5A” for “4A”, “5B” for “4B”, “Mec1” for “H929”, “JM1 CLL” for “U266 mM”
as §4

[14] = molecular target: T2, VLA-4 (alpha4beta1 integrin) on …; assay: flow cytometry, binding to U266 (MM) cells
Protocol: as §3

[15] = molecular target: T2, VLA-4 (alpha4beta1 integrin) on …; assay: inhibition of HL60 cell adhesion to wells coated with fibronectin (FN)
Protocol: as §4

[16] = molecular target: T2, VLA-4 (alpha4beta1 integrin) on …; assay: flow cytometry, binding to Mec1 (CLL) cells
Protocol: as §3

[17] = molecular target: T2, VLA-4 (alpha4beta1 integrin) on …; assay: flow cytometry, binding to KG1 (AML) cells
Protocol: as §3

[18] = molecular target: T2, VLA-4 (alpha4beta1 integrin) on …; assay: flow cytometry, binding to JM1 (CLL) cells
Protocol: as §3

[19] = molecular target: T2, VLA-4 (alpha4beta1 integrin) on …; assay: flow cytometry, binding to H929 (MM) cells
Protocol: as §3

[20] = molecular target: T2, VLA-4 (alpha4beta1 integrin) on …; assay: inhibition of KG1 cell adhesion to wells coated with fibronectin (FN)
Protocol: as §4

[21] = molecular target: T2, VLA-4 (alpha4beta1 integrin) on …; assay: cell-based or functional assay
[22] = molecular target: T2, VLA-4 (alpha4beta1 integrin) on …; assay: inhibition of Mec1 cell adhesion to wells coated with fibronectin (FN)
Protocol: as §2, with “5A” for “4A”, “5B” for “4B”, “Mec1” for “H929”, “JM1 CLL” for “U266 mM”
as §4

[23] = molecular target: T2, VLA-4 (alpha4beta1 integrin) on …; assay: inhibition of HL60 cell adhesion to wells coated with VCAM-Ig
Protocol: as §4

Molecule: Glu-Ile-Leu-Asp-Val-Pro-Ser-Thr
Inhibitory activity against fibronectin-dependent cell adhesion [1]: possessed inhibitory activity

Molecule: Arg-Cys-Asp-TPro-Cys
Inhibition of VLA-4 and VLA-5 adhesion to fibronectin [2]: can inhibit both VLA-4 and VLA-5 adhesion to fibronectin

Molecule: Glu-Ile-Leu-Asp-Val (EILDV; printed: Glu-Ile-Leu-Asp-Val) [pentapeptide from the CS-1 region of fibronectin]
Inhibitory activity against fibronectin-dependent cell adhesion [1]: possessed inhibitory activity

Binding to AML, CLL and MM tumor cell lines [4]: saturable binding was observed
Molecule: Natalizumab
Coculture-induced survival signaling through P-STAT3 (P-STAT3): can be inhibited
Percentage of cells undergoing apoptosis (AML cell line HL60): increase in the percentage of cells undergoing apoptosis
Inhibition of tumor cell binding to VLA-4 ligands at saturating levels [3]: inhibit binding in all cell types assayed
Effect on cell adhesion mediated resistance to melphalan (MM cell line U226): did not have a cytoprotective effect

Molecule: Leu-Asp-Val-Pro-Ser (LDVPS; printed: Leu-Asp-Val-Pro-Ser) [pentapeptide from the CS-1 region of fibronectin]
Inhibitory activity against fibronectin-dependent cell adhesion [1]: possessed inhibitory activity

IC50 [5]: 0.19 nM
IC50 [6]: 0.45 nM
IC50 [7]: 0.26 nM
IC50 [8]: 0.4 nM
IC50 [9]: 0.22 nM
IC50 [10]: 0.4 nM
EC50 [11]: 0.19 nM
IC50 [12]: 0.19 nM
IC50 [13]: 11.6 nM
EC50 [14]: 0.3 nM
IC50 [15]: 0.5 nM
EC50 [16]: 0.11 nM
EC50 [17]: 0.22 nM
EC50 [18]: 0.28 nM
EC50 [19]: 0.8 nM
IC50 [20]: 0.1 nM
IC50 (nM) of inhibition of H929 (MM) cell adhesion to bone marrow stromal cells (BMSC) [21]: 1.74 nM
IC50 (nM) of inhibition of HL60 (AML) cell adhesion to bone marrow stromal cells (BMSC) [21]: 13.7 nM
IC50 (nM) of inhibition of U266 (MM) cell adhesion to bone marrow stromal cells (BMSC) [21]: 0.53 nM
IC50 [22]: 0.39 nM
IC50 [23]: 0.92 nM
B1: natalizumab (antibody, human IgG4, kappa, V domains shown)
VH: QVQLVQSGAEVKKPGASVKVSCKASGFNIKDTYIHWVRQAPGQRLEWMGRIDPANGYTKYDPKFQGRVTITADTSASTAYMELSSLRSEDTAVYYCAREGYYGNYGVYAMDYWGQGTLVTVSS
VL: DIQMTQSPSSLSASVGDRVTITCKTSQDINKYMAWYQQTPGKAPRLLIHYTSALQPGIPSRFSGSGSGRDYTFTISSLQPEDIATYYCLQYDNLWTFGQGTKVEIKR
modifications: Glutamine 1 cyclized to pyroGlutamic Acid; C-terminal Lysine is removed posttranslationally
notes: Humanized version of murine monoclonal antibody 21.6; also called AN100226; TYSABRI

Reference: US20100266587A1, “Compositions and Methods to Treat Acute Myelogenous Leukemia” (BIOGEN IDEC MA INC., priority 2009, published 2010)
